These results are taken from article PMC8563730, “CryoEM structure of the outer membrane secretin channel pIV from the f1 filamentous bacteriophage” (Nature Communications, 2021).

The data set concerns the molecule itself. Kind of data set: cryo-EM structure; purified f1pIV (~0.7 mg/ml) in 1% CHAPS, 25 mM Na HEPES pH 8.0, 500 mM NaCl, 0.5 mM EDTA, on graphene oxide-coated lacey carbon grids; 2D class averages and a 3D reconstruction with C15 symmetry, 2.7 Å.

B1: f1 pIV secretin (His-tagged f1pIV with the stabilizing S318I mutation) (natural protein, bacteriophage f1, UniProt P03666 22-426, looked up)
chain: QVIEMNNSSLRDFVTWYSKQTGESVIVSPDVKGTVTVYSSDVKPENLRDFFISVLRANNFDMVGSIPSIIQKYNPNNQDYIDELPSSDNQEYDDNSAPSGGFFVPQNDNVTQTFKINNVRAKDLIRVVELFVKSNTSKSSNVLSVDGSNLLVVSAPKDILDNLPQFLSTVDLPTDQILIEGLIFEVQQGDALDFSFAAGSQRGTVAGGVNTDRLTSVLSSAGGSFGIFNGDVLGLSVRALKTNSHSKILSVPRILTLSGQKGSISVGQNVPFITGRVTGESANVNNPFQTVERQNVGISMSVFPVAMAGGNIVLDITIKADSLSSSTQASDVITNQRSIATTVNLRDGQTLLLGGLTDYKNTSQDSGVPFLSKIPLIGLLFSSRSDSNEESTLYVLVKATIVRAL
notes: pIV secretin (gene IV protein, virion export protein) of filamentous bacteriophage f1; mature protein of 405 residues (N0 1-88, linker 89-107, N3 108-172, linker 173-174, secretin domain 175-405); S318 is residue 339 of the precursor (318 + 21 signal residues); also called f1pIV secretin channel; copies: 15
By stoichiometry N is commonly meant a count of units in the complex or per binding partner. For B1, the “stoichiometry N” value amounted to 15.
